Consider one substance from article PMC9241633.

The series deals with KbvR (Klebsiella pneumoniae). The series can be described thus: MST. The settings on record: MST: constant labeled KbvR, 2-fold DNA dilution series (16 samples), 30 min incubation at room temperature, measured at 30 C, 80% excitation power, medium LED ….

A word on the pKd: it is −log10 of the Kd, conventionally taken in molar units. A lower pKd goes with a high Kd.

pKd: −log10 of the molar value.

Regarding ompK36 promoter region, the pKd was 6.35.
